Laboratory results from US20170283834A1, “Processes for Producing A Fermentation Product Using A Fermenting Organism” (Novozymes A/S, priority 2014, published 2017).

B1: JTP079: protease variant of SEQ ID NO: 3: A27G/D79L/S87P/A112P/D142L (protein, listed as Thermoascus aurantiacus)
chain: MRLVASLTALVALSVPVFPAAVNVKRASSYLEITLSQVSNTLIKAVVQNTGSDELSFVHLNFFKDPAPVKKVSVYRDGSEVQFEGILSRYKSTGLSRDAFTYLAPGESVEDVFDIASTYDLTSGGPVTIRTEGVVPYATANSTDIAGYISYSSNVLTIDVDGAAAATVSKAITPLDRRTRISSCSGSRQSALTTALRNAASLANGAADAAQSGSASKFSEYFKTTSSSTRQTVAARLRAVAREASSSSSGATTYYCLDPYGYCSPNVLAYTLPSYNIIANCDIFYTYLPPLTSTCHAQDQATTALHEFTHAPGVYSPGTLDLAYGYQAAMGLSSSQAVMNADTYALYANAIYLGC
B2: JTP083: protease variant of SEQ ID NO: 3: T46R/D79L/S87P/A112P/D142L (protein, listed as Thermoascus aurantiacus)
chain: MRLVASLTALVALSVPVFPAAVNVKRASSYLEITLSQVSNTLIKAVVQNTGSDELSFVHLNFFKDPAPVKKVSVYRDGSEVQFEGILSRYKSTGLSRDAFTYLAPGESVEDVFDIASTYDLTSGGPVTIRTEGVVPYATANSTDIAGYISYSSNVLTIDVDGAAAATVSKAITPLDRRTRISSCSGSRQSALTTALRNAASLANAAADAAQSGSASKFSEYFKRTSSSTRQTVAARLRAVAREASSSSSGATTYYCLDPYGYCSPNVLAYTLPSYNIIANCDIFYTYLPPLTSTCHAQDQATTALHEFTHAPGVYSPGTLDLAYGYQAAMGLSSSQAVMNADTYALYANAIYLGC
B3: JTP090: protease variant of SEQ ID NO: 3: D79L/S87P/A112P/T124L/D142L (protein, listed as Thermoascus aurantiacus)
chain: MRLVASLTALVALSVPVFPAAVNVKRASSYLEITLSQVSNTLIKAVVQNTGSDELSFVHLNFFKDPAPVKKVSVYRDGSEVQFEGILSRYKSTGLSRDAFTYLAPGESVEDVFDIASTYDLTSGGPVTIRTEGVVPYATANSTDIAGYISYSSNVLTIDVDGAAAATVSKAITPLDRRTRISSCSGSRQSALTTALRNAASLANAAADAAQSGSASKFSEYFKTTSSSTRQTVAARLRAVAREASSSSSGATTYYCLDPYGYCSPNVLAYTLPSYNIIANCDIFYTYLPPLTSTCHAQDQALTALHEFTHAPGVYSPGTLDLAYGYQAAMGLSSSQAVMNADTYALYANAIYLGC
B4: JTP088: protease variant of SEQ ID NO: 3: Y43F/D79L/S87P/A112P/D142L (protein, listed as Thermoascus aurantiacus)
chain: MRLVASLTALVALSVPVFPAAVNVKRASSYLEITLSQVSNTLIKAVVQNTGSDELSFVHLNFFKDPAPVKKVSVYRDGSEVQFEGILSRYKSTGLSRDAFTYLAPGESVEDVFDIASTYDLTSGGPVTIRTEGVVPYATANSTDIAGYISYSSNVLTIDVDGAAAATVSKAITPLDRRTRISSCSGSRQSALTTALRNAASLANAAADAAQSGSASKFSEFFKTTSSSTRQTVAARLRAVAREASSSSSGATTYYCLDPYGYCSPNVLAYTLPSYNIIANCDIFYTYLPPLTSTCHAQDQATTALHEFTHAPGVYSPGTLDLAYGYQAAMGLSSSQAVMNADTYALYANAIYLGC
B5: JTP145: protease variant of SEQ ID NO: 3: S49P D79L S87P A112P D142L (protein, listed as Thermoascus aurantiacus)
chain: MRLVASLTALVALSVPVFPAAVNVKRASSYLEITLSQVSNTLIKAVVQNTGSDELSFVHLNFFKDPAPVKKVSVYRDGSEVQFEGILSRYKSTGLSRDAFTYLAPGESVEDVFDIASTYDLTSGGPVTIRTEGVVPYATANSTDIAGYISYSSNVLTIDVDGAAAATVSKAITPLDRRTRISSCSGSRQSALTTALRNAASLANAAADAAQSGSASKFSEYFKTTSPSTRQTVAARLRAVAREASSSSSGATTYYCLDPYGYCSPNVLAYTLPSYNIIANCDIFYTYLPPLTSTCHAQDQATTALHEFTHAPGVYSPGTLDLAYGYQAAMGLSSSQAVMNADTYALYANAIYLGC
B6: JTP141: protease variant of SEQ ID NO: 3: D79L S87P A112P D142L T141C M161C (protein, listed as Thermoascus aurantiacus)
chain: MRLVASLTALVALSVPVFPAAVNVKRASSYLEITLSQVSNTLIKAVVQNTGSDELSFVHLNFFKDPAPVKKVSVYRDGSEVQFEGILSRYKSTGLSRDAFTYLAPGESVEDVFDIASTYDLTSGGPVTIRTEGVVPYATANSTDIAGYISYSSNVLTIDVDGAAAATVSKAITPLDRRTRISSCSGSRQSALTTALRNAASLANAAADAAQSGSASKFSEYFKTTSSSTRQTVAARLRAVAREASSSSSGATTYYCLDPYGYCSPNVLAYTLPSYNIIANCDIFYTYLPPLTSTCHAQDQATTALHEFTHAPGVYSPGCLDLAYGYQAAMGLSSSQAVCNADTYALYANAIYLGC
B7: JTP137: protease variant of SEQ ID NO: 3: A27K D79L S87P A112P A126V D142L (protein, listed as Thermoascus aurantiacus)
chain: MRLVASLTALVALSVPVFPAAVNVKRASSYLEITLSQVSNTLIKAVVQNTGSDELSFVHLNFFKDPAPVKKVSVYRDGSEVQFEGILSRYKSTGLSRDAFTYLAPGESVEDVFDIASTYDLTSGGPVTIRTEGVVPYATANSTDIAGYISYSSNVLTIDVDGAAAATVSKAITPLDRRTRISSCSGSRQSALTTALRNAASLANKAADAAQSGSASKFSEYFKTTSSSTRQTVAARLRAVAREASSSSSGATTYYCLDPYGYCSPNVLAYTLPSYNIIANCDIFYTYLPPLTSTCHAQDQATTVLHEFTHAPGVYSPGTLDLAYGYQAAMGLSSSQAVMNADTYALYANAIYLGC
B8: JTP136: protease variant of SEQ ID NO: 3: D79L Y82F S87P A112P A126V D142L (protein, listed as Thermoascus aurantiacus)
chain: MRLVASLTALVALSVPVFPAAVNVKRASSYLEITLSQVSNTLIKAVVQNTGSDELSFVHLNFFKDPAPVKKVSVYRDGSEVQFEGILSRYKSTGLSRDAFTYLAPGESVEDVFDIASTYDLTSGGPVTIRTEGVVPYATANSTDIAGYISYSSNVLTIDVDGAAAATVSKAITPLDRRTRISSCSGSRQSALTTALRNAASLANAAADAAQSGSASKFSEYFKTTSSSTRQTVAARLRAVAREASSSSSGATTYYCLDPFGYCSPNVLAYTLPSYNIIANCDIFYTYLPPLTSTCHAQDQATTVLHEFTHAPGVYSPGTLDLAYGYQAAMGLSSSQAVMNADTYALYANAIYLGC
B9: JTP143: protease variant of SEQ ID NO: 3: S36P D79L S87P A112P D142L (protein, listed as Thermoascus aurantiacus)
chain: MRLVASLTALVALSVPVFPAAVNVKRASSYLEITLSQVSNTLIKAVVQNTGSDELSFVHLNFFKDPAPVKKVSVYRDGSEVQFEGILSRYKSTGLSRDAFTYLAPGESVEDVFDIASTYDLTSGGPVTIRTEGVVPYATANSTDIAGYISYSSNVLTIDVDGAAAATVSKAITPLDRRTRISSCSGSRQSALTTALRNAASLANAAADAAQSGPASKFSEYFKTTSSSTRQTVAARLRAVAREASSSSSGATTYYCLDPYGYCSPNVLAYTLPSYNIIANCDIFYTYLPPLTSTCHAQDQATTALHEFTHAPGVYSPGTLDLAYGYQAAMGLSSSQAVMNADTYALYANAIYLGC
B10: JTP135: protease variant of SEQ ID NO: 3: S38T D79L S87P A112P A126V D142L (protein, listed as Thermoascus aurantiacus)
chain: MRLVASLTALVALSVPVFPAAVNVKRASSYLEITLSQVSNTLIKAVVQNTGSDELSFVHLNFFKDPAPVKKVSVYRDGSEVQFEGILSRYKSTGLSRDAFTYLAPGESVEDVFDIASTYDLTSGGPVTIRTEGVVPYATANSTDIAGYISYSSNVLTIDVDGAAAATVSKAITPLDRRTRISSCSGSRQSALTTALRNAASLANAAADAAQSGSATKFSEYFKTTSSSTRQTVAARLRAVAREASSSSSGATTYYCLDPYGYCSPNVLAYTLPSYNIIANCDIFYTYLPPLTSTCHAQDQATTVLHEFTHAPGVYSPGTLDLAYGYQAAMGLSSSQAVMNADTYALYANAIYLGC
B11: JTP144: protease variant of SEQ ID NO: 3: A37P D79L S87P A112P D142L (protein, listed as Thermoascus aurantiacus)
chain: MRLVASLTALVALSVPVFPAAVNVKRASSYLEITLSQVSNTLIKAVVQNTGSDELSFVHLNFFKDPAPVKKVSVYRDGSEVQFEGILSRYKSTGLSRDAFTYLAPGESVEDVFDIASTYDLTSGGPVTIRTEGVVPYATANSTDIAGYISYSSNVLTIDVDGAAAATVSKAITPLDRRTRISSCSGSRQSALTTALRNAASLANAAADAAQSGSPSKFSEYFKTTSSSTRQTVAARLRAVAREASSSSSGATTYYCLDPYGYCSPNVLAYTLPSYNIIANCDIFYTYLPPLTSTCHAQDQATTALHEFTHAPGVYSPGTLDLAYGYQAAMGLSSSQAVMNADTYALYANAIYLGC
B12: JTP140: protease variant of SEQ ID NO: 3: D79L S87P N98C A112P G135C D142L (protein, listed as Thermoascus aurantiacus)
chain: MRLVASLTALVALSVPVFPAAVNVKRASSYLEITLSQVSNTLIKAVVQNTGSDELSFVHLNFFKDPAPVKKVSVYRDGSEVQFEGILSRYKSTGLSRDAFTYLAPGESVEDVFDIASTYDLTSGGPVTIRTEGVVPYATANSTDIAGYISYSSNVLTIDVDGAAAATVSKAITPLDRRTRISSCSGSRQSALTTALRNAASLANAAADAAQSGSASKFSEYFKTTSSSTRQTVAARLRAVAREASSSSSGATTYYCLDPYGYCSPNVLAYTLPSYCIIANCDIFYTYLPPLTSTCHAQDQATTALHEFTHAPCVYSPGTLDLAYGYQAAMGLSSSQAVMNADTYALYANAIYLGC

These molecules were tested on zein (assay: Relative activity assay of protease variants (zein micro titer plate)). Conditions: Table 3.
Assay type: biochemical
In short: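 Yeast culture supernatants (3 days, 28 °C) incubated over 4 h or overnight on zein-agar plates (pH 4.5 acetate, 0.25 mM ZnSO4) at two temperatures. Zein turbidity read at A630; higher/lower-temperature activity ratio gives relative thermoactivity.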

For B1, the “Relative activity 75° C./65° C.” value was 104%.

Same assay, conditions: Table 4

Point of comparison: B3, “Relative activity 75° C./65° C.” value 141%. Against it:
- B2 — lower, 126%
- B4 — lower, 119%

Same assay, conditions: Table 5, upper part

Point of comparison: B9, “Relative activity 75° C./70° C.” value 69%. Against it:
- B5 — higher, 82%
- B6 — lower, 68%
- B11 — lower, 57%
- B12 — higher, 81%

Point of comparison: B8, “Relative activity 80° C./70° C.” value 59%. Against it:
- B5 — the same, 59%
- B7 — lower, 54%
- B10 — higher, 62%
